The results in this text go back to article PMC10641296.

In this experiment the target is SCM-2 on the surface of S. canis strain IMT40096 (Streptococcus canis (endogenous in strain IMT40096)). The experiment can be described thus: flow cytometry on cells; S. canis bacteria (mid-exponential phase) incubated with FITC-labeled human fibrinogen in PBS, 30 min at 37°C, fixed; MFI normalized to SCM-1 S. canis G361; scm2 knock-out of IMT40096 as control. On the technique in general: A flow cytometer gives signals particle by particle.

As to “FITC-labeled human fibrinogen (from UniProt P02671 36-866; P02675 45-491; P02679 27-453) (complex)”, the fold of fluorescence against S. canis G361 is > 3 fold of G361.
